From publication PMC4987623, “The tetrameric MotA complex as the core of the flagellar motor stator from hyperthermophilic bacterium” (Scientific Reports, 2016)

Assays:
[1] = target: the molecule itself; assay: cross-linking; about 0.5 mg/mL purified His-MotA in PN buffer (50 mM NaPO4 pH 7.0, 150 mM NaCl) with 0.1% (w/v) DM, 20 °C, 0-5 mM BS3 for 5 min; SDS-PAGE, CBB staining and immunoblot
[2] = target: the molecule itself; assay: cross-linking; about 0.5 mg/mL purified His-MotA in PN buffer (50 mM NaPO4 pH 7.0, 150 mM NaCl) with 0.1% (w/v) DM, 20 °C, 20 mM EDC for 0-120 min; SDS-PAGE, CBB staining and immunoblot
[3] = target: the molecule itself; assay: negative-stain electron microscopy, single particle 3D reconstruction; MotA complex from the 210 kDa gel filtration fraction, stained with 2% uranyl acetate; 2-fold rotational symmetry applied; 25 Å resolution

B1: MotA from Aquifex aeolicus with N-terminal histidine tag (His-MotA^Aa) (natural protein, UniProt O67122 1-254, looked up)
chain: MDVGTIIGIIAAFLLILISILIGGSITAFINVPSIFIVVGGGMAAAMGAFPLKDFIRGVLAIKKAFLWKPPDLNDVIETIGEIASKVRKEGILALEGDIELYYQKDPLLGDMIRMLVDGIDINDIKATAEMALAQLDEKMSTEVAVWEKLADLFPAFGMIGTLIGLIQMLRNLNDPSALGPGMAVALITTLYGAILANAFAIPVANKLKKAKDMEVLVKTIYIEAIEKIQKGENPNVVKQEAAIMLGVELPEEV
notes: MotA, flagellar motor stator protein of Aquifex aeolicus; full-length motA gene cloned into pColdI; four transmembrane helices, cytoplasmic residues 54-149 and 205-254; Expressed from pColdI-motA^Aa without MotB; 28 kDa with the tag; source: E. coli BL21-CodonPlus(DE3)-RIPL, membrane fraction solubilized in detergent, purified (Ni-NTA agarose, gel filtration); not shown: His6, N-terminal, kept
- stoichiometry N [1]: 2
- stoichiometry N [2]: ≥ 4
- stoichiometry N [3]: 4
